This is an account of results in the DeepSol protein solubility set.

A short description of this series: soluble on expression in E. coli; label from the status in PepcDB or PDB records.
On to “GHMPPWTARQDSTTGLYAPVTPAGRVLLDRLAAHLPRIRSTAAEHDRDGTFPTDTFDALRKDGLMGATVPAELGGLGVDRLYDVAVALLAVARADASTALALHMQLSRGLTLGYEWRHGDERARTLAERILRGMVAGDAVVCSGIKDHHTAVTTLRPDGAGGWLLSGRKTLVSMAPVGTHFVINARTDGTDGPPRLASPVVTRDTPGFTVLDNWDGLGMRASGTVDIVFDDCPIPADHVLMRDPVGARNDAVLAGQTVSSVSVLGVYVGVAQAAYDTAVAALERRPEPPQAAALTLVAEIDSRLYALRATAGSALTAADALSADLSGDMDERGRQMMRHFQCAKLAVNRLAPEIVSDCLSLVGGASYTAGHPLARLLRDVQAGRFMQPYAYVDAVDFLSAQALGIERDNNYMSTWAKRSGGNGKSADAAGPRRPTPTSR”, for which the “soluble on expression in E. coli” value is “soluble”.
As for “MGSDKIHHHHHHMYNVGGVVLKRYFVAPGRINVIGEHTDYNEGFVLPVAIDKYVLLSVEKTSGSKISLSSMGREPVSFDESKIQKTGDWSDYLKGVLWVLKDELGTEFGGMSIEINSNLPEGAGLSSSAAVEVAMIVALNSSFNLKLDETELYDYARKAENEFVGVKCGVMDQFAAVMGKKDKAIFLDTLEMRYEYVPLELGDYTFLVFDSKVHHSLSKGGYNTRREEARKALEILGKSSYRDVSMVDLFPNRSRLGELYYRRALHVVSENMRVLESVKIMSNSNFENLGRLLIQSHESLALDYEVSCDETDFIVNTLREMKGVSGARMIGAGFGGSVLSLCEKEEEKKIVEVIKTRYKERFGIDLDSYEVRTSDGAREVDSSFSL”, the “soluble on expression in E. coli” value was “not soluble”.
For the sequence “GMVPMTRFDSATEVVRVGENRYAVELDPGYLIGTAMNGGYLMTVLQRSALAESDHLHAVSSSYHFHRPASSGPAEIETRVLKRGRTVTTVQTTLFQEGRTILTGTLATATLDPHAEPRYAAPQPAIPPQHQCRRVDPRQSHLPDDGFLARVDVDFSPDSYAALARERTVTTPELCGYVDLSARDGGSAKDPLAFLPLAVDALPPIVSLLVDWSWAPTVELTWHLRAIPEPGPLAFRSTCALVSDGWFDENVDLWDARGRLVAQSRQLARVGR”, the “soluble on expression in E. coli” value was “soluble”.
Under “MSLSTIAIFGSYVLSRKDGAQDVLRDHWVLVEGKKIAAVTRDRPRADEVYDRPGRFVLPGLLNLHNHCFSEAVARSHSEDGTGRKNNQSIVYTVLLPLTKRGADILSAEERMAVARLGILQLLKGGATTVMEPFRNSIPEMFDAAEEMGIRFYGAPYLFSTSDAKAGPDGVVQYSGDDGTADMATWDALYQRWNNRGDGRISLAMSPHATDTCGPDLLKACAARARELGVPITTHMAQSRAEVETIGKRYGGRTPAQYLDWLGLLAPDLMAAHCMFSTDDDLKLMAARGMTVLNCPRVFARAGVTAAFSRFAEHGVRTVVGTDGYNMDLLGELNAASLISKITSQRADVANSPELIEANTAVAADVIKRPDLGRIEPGATADLTVVDLTHPHLQPLFDPRRALIALANRANIDQVMVDGRVLVDGGRYLGADEAAITAAGSAAIGKIWDLPEAQAAFNGEGHHHHHH” stands “soluble”; under “MAHHHHHHMELSKYAGLSSERLDCLRNLDIRKRSIYKGSTFSYGNNIYDILHNYSDKQKENKSDGVSVAHDYKDFQRNIKFAGLESEIKNDINIRNRRIKNDMNYRNDNLKDILQNNMNEQNINNSKYFLSDKGYVLTPKRCLARHVDDSEINKYFSTKYAVTDSSTGRTEIMVERKPGCSNIIVQNFSEFDAYGTYKKKDERINRRDSFVHTKMGIVPRDGSCIDNNKCKAQATFTHIHRRDNIAPDNYWLCPTIESDKKNKTKR”, “not soluble”; under “RDHRKIGKQLDLYHMQEEAPGMVFWHNDGWTIFRELEVFVRSKLKEYQYQEVKGPFMMDRVLWEKTGHWDNYKDAMFTTSSENREYCIKPMNCPGHVQIFNQGLKSYRDLPLRMAEFGSCHRNEPSGSLHGLMRVRGFTQDDAHIFCTEEQIRDEVNGCIRLVYDMYSTFGFEKIVVKLSTRPEKRIGSDEMWDRAEADLAVALEENNIPFEYQLGEGAFYGPKIEFTLYDCLDRAWQCGTVQLDFSLPSRLSASYVGEDNERKVPVMIHRAILGSMERFIGILTEEFAGFFPTWLAPVQVVIMNITDSQSEYVNELTQKLSNAGIRVKADLRNEKIGFKIREHTLRRVPYMLVCGDKEVESGKVAVRTRRGKDLGSMDVNEVIEKLQQEIRSRSLKQLEE”, “soluble”.
As for “MGSDKIHHHHHHMTDTTIPNPLAPVKGANTTFWMYNSEGDPFASPLSDNNWLRLANVKDLQPGELTADAEDNNYLDDENADWKSTTQGQKSAGDTSVTLAWKPGEDVQKKLIQLFTTGQKRGFRIKYPNGTVDVFRGWVSSLGKTVQSKDEIARTVKITSVGRPYMAEEDAPEVVSVTGLTVEPTNATVKVGATTAVTFTVKPDNVTDKSLRIATSDPTTATVTQAENIATVKGVKAGTVKIIGMTTDGNFTAIADITVQA”, the “soluble on expression in E. coli” value was “not soluble”.
To “MGSDKIHHHHHHMALDQDGIQKVQKISTGIERLDDLFYGGFDRNDNVVVRGNNFSQKRSFIYSFIKKSANSGIGVVLVDFDFPSEGIMADLVRSGTNTDMVHILDGFAKPFQISAPSNTEMLDDPGNIPSVLKQITSTVQKMDEYVFVMLSATRYLIAKDQNTDRFFVQLINMNRKRSLVSIYAVDDFVPEDRSEWFAYLMDSALHFRNAGARAYLRVLTLKRIRTKEWVRIYPEEGTFTLGSFNVERIK” belongs “not soluble”; to “MGSDKIHHHHHHKGHRVTGSDANVYPPMSTQLEEQGIELIQGFDPSQLGDAGSYPDIVVIGNAMSRGNPCVEAVLNLGIPYTSGPQFLVDHILPERWVLAVSGTHGKTSTSSMLAWILEDCGYQPGFLIGGVPQNFGVSARLGESAFFVVEADEYDSAFFDKRSKFVHYHPRTLVINNLEFDHADIFADLAAIQKQFHHQIRTVPGQGKVIWPADSHAVKQTIDMGCWSEQETYHSSEVTKGWHAKALSDDCHEFEVFFDGQSQGVLDWALIGQHNIENAVMAIAAARHVGVAPSAAIDALARFVPPKRRLELLDTVNGVSVYDDFAHHPTAIATTIKGMRAKVGQTKITIVLEPRSNTMKSGVHKDTLAHSMLQADEAFLYQADTIDWNMKEAMEAAVIPVTVLHQIDDVVAKVAASAKPGDTIVVMSNGGFGGLHKKLLAALAVSPQLVEQAH”, “not soluble”.
Under “MGSDKIHHHHHHMITENIKKEILRRIRNAEKEHNVKVLYAVESGSRAWGFESPNSDYDVRFIYAHPKDWYVSVDLEYKRDVIEYEIVDEIDINGWDIRKALQLFSKSNPAFVEWIQSSIVYVDDHSFAKGARQLLDTVYSVEKGIYHYRSMAKTNYRGYLKEEIVPIKKYFYVLRPLLSIMWLEKYQKPAPIEFVKLRTLIPTGSTIDQAISDLLERKKRSLEKEYAPAVPVLNAFIESELDRLENYQDSPQRNSSHMESLNSLFRVSIS” stands “not soluble”; under “MGSDKIHHHHHHMKILICDDDSSITQSLSLIIKTYFNKKKVNNLDIVTFNDGDSLLSDKSQKDIIFLDIEMPGFDGIYVGNELKKQNDSVIIFIVTSYLEYLDAAMRFHVFRYLSKPIDKQRLFQNLDDALELYYSINQKIAVETKYGVTSVLTCDIVYVEAKGRKVIVHTATADLDSTQTLQFWIEHLPQATFFQSHRSYIVNMAMVTSFDHELIYLCDGQFTAYLTRRKFTEFKRAYLMFMESKR”, “not soluble”; under “MGSDKIHHHHHHMLLEKLNWRYAAKKMDPAKVVSEDKVERIVEAARLAPTSSGLQPFEIIVVTNAEVREKIKAIGWNQSPITDGSHLLVFAAWDNYTAERINHMFDLVNEVRGFRNEGWENYRQMLLSAYPQRDPETNFEHAARQAYIAFGLALAQAAFEGVDATPMEGFDPKALDEILGLRERGLRSVTIAPLGYRQVEGDWLVNLQKVRRPRDQFVTEVK”, “not soluble”.
To “MSLRHDVILVLLDGLNHSVARDCMGHLQALCGAGRGQSYRLECELPSLSRPLYECILTGVPPIDSGILHNDVVRLSQEQSLFHYARAAGLSTAAAAYHWVSELYNRAPFDPARDRHTDDSALPIQRGHFYWSDHYPDSHLFADAESLRRRHAPNFMLVHSMNIDDAGHRHGLASPAYRNAARRADALLSEYLHQWLAAGYQVAITADHGMNEDRSHGGILEEEREVPLFVFGDAFSRDDLAQPLQTDLCGTLCEILGAAHDKPVCREEGHHHHHH” belongs “not soluble”.
As for “MTQMNFTDRATRVAIIANGKYQSKRVASKLFAAFKHDPDFYLSKKDPDIVISIGGDGMLLSAFHMYEKQLDKVRFVGVHTGHLGFYTDYRDFEVDTLINNLKNDKGEQISYPILKVTITLEDGRVIRARALNESTIKRIEKTMVADVVINQVVFERFRGDGILVSTPTGSTAYNKSLGGAVLHPTIEALQLTEISSLNNRVYRTLGSSVIIPKKDAIEIVPKRVGVYTISIDNKTVHYKNVTKIEYSIDEKSINFVSTPSHTSFWERVNDAFIGEPEHLEHHHHHH”, the “soluble on expression in E. coli” value is “not soluble”.
To “MSLGAYLSSPKTNKESLDGGNLELDPSRYGLSCMQGWRKNMEDAHICYNNLKFNEIEEDVSIYGVFDGHGGPNVSKWISYNFRRIFIRCLKEANAGETGEDDCNGVYSSEELRLFENYYSNDYEDNIAYSCGSTALVAVILKGYLIVANAGDSRAIVCFNGNSLGMSTDHKPHLQTEEARIKKAGGYIANGRVDGNLNLTRAIGDLHYKRDPFLPQKDQKISAFPEITCVTLTPEDEFLFLACDGIWDCKDGQDVVGFVKTRLEKFEEIPDDPNNSLDNTENSEHMNTNNNSDQNEKLKSEEGHHHHHH” belongs “soluble”.
To “MDSQKDFNLGDSSKGEKEGMQPSTGNNQFEPFEFLKKMIQPGRVMKRSKNNLSSNEVWSVCRAVIDEFKKEQNLMEVSAPVTVIGDVHGNFHDLYRALLARTEQDITDEQKSNFSTRQFVRDKYVFLGNYIDKGPRSIECICLLFAFKICFPQKYILLRGPHECPSVNSSEFLGVMETFSPNHFKKIHKKFNEAFSWMPLAAVVGQKILCVHGGISPRLTSWEDIRKIKRPLKDATEDPLATDLLFADTLDFDLIHIPTRKPKYEFNVIRNMSVMYNEAAVTQFCEKFNLKLIIRSHMKVPFGYRFFSEKRLITIFNSTGFQNESNYGAVLKIDGNAKITIISLLPQQSKAEVQEKAHHSDMTSECNTMSSKGP” belongs “not soluble”; to “MGNTATEFDGPYVITPISGQSTAYWICDNRLKTTSIEKLQVNRPEHCGDLPETKLSSEIKQIMPDTYLGIKKVVALSDVHGQYDVLLTLLKKQKIIDSDGNWAFGEGHMVMTGDIFDRGHQVNEVLWFMYQLDQQARDAGGMVHLLMGNHEQMVLGGDLRYVHQRYDIATTLINRPYNKLYSADTEIGQWLRSKNTIIKINDVLYMHGGISSEWISRELTLDKANALYRANVDASKKSLKADDLLNFLFFGNGPTWYRGYFSETFTEAELDTILQHFNVNHIVVGHTSQERVLGLFHNKVIAVDSSIKVGKSGELLLLENNRLIRGLYDGTRETLQENSLNQ”, “soluble”.
As to “MFGGDVSAASVLPSHPISGSCDGFQAEGSDHHHSTMTPFQESQRNVYQILYGHPANDDFPRPITPLQITIPEGDASPTVPVSCGVVNGKMHLNLFMCPGIHQPCIEVGNDLLSPKQFTIRGDKERQKDWKASIRVGRSSLRTHMEAMTIDFYEHMNRCSGKCQSRNYVNAPSEEVLQARKSKRTSEAGQLKYEIENEMAGKEADNDDNRKSAKKARGRPRGSVNKPRQMVKMEPQDDRFFEEFFIDAPPLQSMSSNEEPTSSNKESNECTPFNDILNCLQNDPMNFWSQMQQTGVIGHFCDDIIVSAINLKQSVMDNPVTPTTANMLTRTAFALGIPPVVVHRVQSIERNAYQQRKHDEMFNDIQSTLAEEHSVKYQPRTSSSSQESLHTAREFTEEKVEELIDVCKYDDYPESECLPGPSHIQ”, the “soluble on expression in E. coli” value was “not soluble”.
To “MDDLASQSFPEPERAIMKATYQVLCEYGYADLTIQQIADEYGKTTTAVHYHCDTKNKLLTAFLDYLLEELADSVHNIRTTNPENRLKFLLDELLVKSKNEPVLSIALLEMQSQTPYKEPFRERFKQMAVVNRQTELDFTVSETA” belongs “not soluble”.
